Source: publication PMC10702477

Assays:
[1] = substrate: O=c1cc(-c2ccccc2)c2c(O)cc(O)cc2o1; experiment: RP-HPLC product/acceptor peak ratio, Michaelis-Menten fit; type: biochemical, Arabidopsis thaliana; details: 500 μM UDP-Glc, 50 mM TBT buffer at optimal pH, 293 K; product 7-O-Glc; 20.0 °C
[2] = substrate: Cc1cc(=O)oc2cc(O)cc(O)c12; experiment: as above; type: biochemical, Arabidopsis thaliana; details: 500 μM UDP-Glc, 50 mM TBT buffer at optimal pH, 293 K; product 5-O-Glc; 20.0 °C

B1: AtUGT78D2 (Arabidopsis thaliana) (protein)
chain: MTKPSDPTRDSHVAVLAFPFGTHAAPLLTVTRRLASASPSTVFSFFNTAQSNSSLFSSGDEADRPANIRVYDIADGVPEGYVFSGRPQEAIELFLQAAPENFRREIAKAETEVGTEVKCLMTDAFFWFAADMATEINASWIAFWTAGANSLSAHLYTDLIRETIGVKEVGERMEETIGVISGMEKIRVKDTPEGVVFGNLDSVFSKMLHQMGLALPRATAVFINSFEDLDPTLTNNLRSRFKRYLNIGPLGLLSSTLQQLVQDPHGCLAWMEKRSSGSVAYISFGTVMTPPPGELAAIAEGLESSKVPFVWSLKEKSLVQLPKGFLDRTREQGIVVPWAPQVELLKHEATGVFVTHCGWNSVLESVSGGVPMICRPFFGDQRLNGRAVEVVWEIGMTIINGVFTKDGFEKCLDKVLVQDDGKKMKCNAKKLKELAYEAVSSKGRSSENFRGLLDAVVNII
[1]
  Km: 28.9 ± 4.8 µM
  kcat: 0.132 ± 0.00667 s⁻¹
[2]
  Km: 34.4 ± 4.3 µM
  kcat: 0.932 ± 0.04 s⁻¹
